Substitutions are numbered along the chain they refer to.
B1: H1H3325P (antibody, V domains shown)
VH: EVQLVESGGGLVQPGGSLRLSCAASGFTFNSFVMSWVRQAPGKGLEWVSAISGYGGSTYYADSMKGRFTVSRDNSKNTLYLQMNSLRAEDTAVYYCAKDHKDFYASGSYFNRDYYYGMDVWGQGTTVTVSS
VL: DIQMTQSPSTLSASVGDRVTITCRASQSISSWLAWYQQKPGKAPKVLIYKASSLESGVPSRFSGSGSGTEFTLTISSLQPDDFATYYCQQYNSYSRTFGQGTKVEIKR
B2: H2M3123N (antibody, V domains shown)
VH: DVQLVESGGDFVQPGGSLRLSCAASGVAFNDYEMNWIRQAPGKRLEWISHIDSSGTIIYYADSVKGRFTISRDSAKNSLFLQMDSLRAEDTAVYYCARERYSHYGYYYFGMDVWGQGTTVTVSS
VL: DIQMTQSPSTLSASVGDRVTITCRASQNIDNWLAWYQQKTGKAPNLLIYKASTLESGVPSRFSGSGSGTEFTLTIISLQPDDFATYYCQEYNTYSRTFGQGTKVEIK
notes: also called H2aM3123N; H1M3123N
B3: H2M3124N (antibody, V domains shown)
VH: EIQLIESGGDMVQPGGSLRLSCAASGISLNSYEMNWVRQTPGMGLEWISHISSSGTSIYYANSVKGRFTIFRDSAKNSLLLQMNSLRAEDTAIYYCARERYDHSGYYYLGMDVWGLGTTVTVSS
VL: DIQMTQSPSTLSASLGDRVTITCRASQNIDNWMAWYQQKVGKAPKLLIYRASTLETGVPSRFGGSGFGTEFTLTISSLQPGDFATYYCQEYNSYFRTFGQGTKVEIK
notes: also called H2aM3124N; H1M3124N
B4: H1H3330P (antibody, V domains shown)
VH: QVQLVESGGGVVQPGGSLRLSCAASGFTFSSYAMHWVRQAPGKGLEWVAIIWFDGSNEDYADSVKGRFTISRDNSKNMVYLQINSLRAEDTAVYYCARSANWNYEGGPLFDYWGQGTLVTVSS
VL: DIQMTQSPSSLSASVGDRVTITCRASQTISTFLNWYQQKPGKGPELLIYTASSLQSGVPSRFSGSGSGTDFALTISSLQPEDFATYYCQQNYNDPPTFGQGTRLEIKR
B5: H2M3121N (antibody, V domains shown)
VH: EVQLVESGGDLVQPGGSLRLSCAASGVTFRTYEMNWVRQAPGKGLEWISHISSSGDIIYYTKSVKGRFTISRDNAKNSLFLQMTSLRAEDTAVYYCARERYSQYGYYYFGMDVWGQGTTVTVSS
VL: DIQMTQSPSTLSASIGDRVTITCRASQNTDKWMAWYQQKAGKAPKLLIYKASILESGVPSRFSGSGSGTEFTLTISSLQPDDFATYYCQEYNTYFRAFGQGTKVETR
notes: also called H2aM3121N; H1M3121N
B6: H1H3347P (antibody, V domains shown)
VH: EVQLVESGGGLVQPGGSLRLSCVASGFTFTSYAMSWVRQAPGRGLQWVSAIGGSGDSIYYADSVKGRFTISRDNSKNTLYLQMDSLRAEDTAVYYCARGWELLNYWGQGTLVTVSS
VL: DIQMTQSPSSLSASVGDRVTITCRASQDIGNFLAWFQQKPGKAPKSLIYAASSLKSGVPSKISGSGSGTDFTLTINSLQPEDFATYYCQQYNIYPPTFGPGTKVDIKR
B7: H1H3339P (antibody, V domains shown)
VH: EVQLVESGGGLVQPGGSLRLSCAVSGFTFSIYAMSWVRQAPGKGLEWVSAISGSGDKTYYADSVKGRFTISRDNSKNTLYLQMNSLRAEDTAVFYCARGWELLNYWGQGTLVTVSS
VL: B6 VL with Q27L, G30S, K42T, A50S, K55R, S56T, I62F, N76S, N92S, I93S
B8: H1H3343P (antibody, V domains shown)
VH: B7 VH with A23V, V24A, T28N, S30R, L45P, A50G, K57N, D62A, I70V, N84T
VL: B6 VL with Q27L, K42T, A50S, K55Q, S56T, I62F, N76S, I93S
B9: H1H3344P (antibody, V domains shown)
VH: B7 VH with V24A, S30K, A40G, S54N, A61T, K65Q, Y80F, V93I, F94Y
VL: B6 VL with V15I, G30S, F32S, K55Q, K61R, I62F, N76S, N92I, I93P, Y94F

The binders below were run against T1, Clostridium difficile toxin A, soluble full-length (TechLab) (Clostridium difficile, UniProt P16154 1-2710) (assay: cell-based or functional assay).
For B1, the “IC50, Vero cell viability (neutralization), Trial 4, 32 pM Toxin A” value was 33 pM. With B2 the “IC50, Vero cell viability (neutralization), Trial 1, 32 pM Toxin A” value (“IC50 … Trial 1, 32 pM Toxin A” for short) was 65 pM and the “IC50, Vero cell viability (neutralization), Trial 2, 32 pM Toxin A” value (“IC50 … Trial 2, 32 pM Toxin A” below) was 24 pM. B3 was tested, and the “IC50 … Trial 1, 32 pM Toxin A” value was 41 pM and the “IC50 … Trial 2, 32 pM Toxin A” value was 21 pM. For B4, the “IC50, Vero cell viability (neutralization), Trial 3, 32 pM Toxin A” value was 7 pM and the “IC50, Vero cell viability (neutralization), Trial 5, 25 pM Toxin A” value was 7 pM. In the case of B5, the “IC50 … Trial 1, 32 pM Toxin A” value is reported as 65 pM and the “IC50 … Trial 2, 32 pM Toxin A” value is reported as 35 pM.

These binders were tested against T2, CBD-toxin B-Fc (Clostridium difficile, UniProt P18177 1851-2366) (assay: SPR Biacore, mAb capture and CBD-Fc capture formats).
T2 construct: also called CBD-B; C-term Toxin B
B6: no binding. B2: no binding. B3: no binding. B5: no binding.

The binders below were run against T3, CBD-toxin A-Fc (Clostridium difficile, UniProt P16154 1848-2710) in the same assay as above.
T3 construct: also called CBD-A; C-term Toxin A
B1: no binding. B7: no binding. B8: no binding. B9: no binding. B2: no binding. B3: no binding. B5: no binding.

Molecular target: T1, Clostridium difficile toxin A, soluble …
Assay: cell-based or functional assay
Remark: another data set of the same source
B4 was tested, and the “neutralization potency relative to control I” value was roughly 20 fold.

Each binder was assayed against T3, CBD-toxin A-Fc (assay: SPR Biacore, mAb captured, 100 nM CBD-A-Fc flowed).
With B1 the “binding (RU)” value was 17 RU. B7 was tested, and the “binding (RU)” value was 19 RU. With B8 the “binding (RU)” value was 11 RU. B6 was tested, and the “binding (RU)” value was 42 RU. In the case of B9, the “binding (RU)” value is reported as 5 RU. For B2, the “binding (RU)” value was 1 RU. For B3, the “binding (RU)” value was 0 RU. For B4, the “binding (RU)” value was 441 RU. In the case of B5, the “binding (RU)” value is reported as 0 RU.

Each binder was assayed against T3, CBD-toxin A-Fc (assay: SPR Biacore, CBD-A-Fc captured, 500 nM mAb flowed).
With B1 the “binding (RU)” value was 3 RU. B7 was tested, and the “binding (RU)” value was 2 RU. For B8, the “binding (RU)” value was 3 RU. B6 was tested, and the “binding (RU)” value was -13 RU. For B9, the “binding (RU)” value was 5 RU. B2 was tested, and the “binding (RU)” value was 23 RU. With B3 the “binding (RU)” value was 29 RU. In the case of B4, the “binding (RU)” value is reported as 515 RU. With B5 the “binding (RU)” value was 23 RU.

The binders below were run against T4, C-term receptor Binding Domain (CBD) of toxin A (Clostridium difficile, UniProt P16154 1848-2710) (assay: SEC (Superose 6) of CBD and mAb mixture).
T4 construct: also called CBD-A; recombinant CBD of toxin A
B1: no binding (tested: CBD at ~500 nM, CBD:Mab 1:5 and 1:20). B2: no binding (tested: CBD at ~500 nM, CBD:Mab 1:5 and 1:20). B3: no binding (tested: CBD at ~500 nM, CBD:Mab 1:5 and 1:20). B5: no binding (tested: CBD at ~500 nM, CBD:Mab 1:5 and 1:20).

Each binder was assayed against T5, C-term receptor Binding Domain (CBD) of toxin B (Clostridium difficile, UniProt P18177 1851-2366) (assay: SEC (Superose 6) of CBD and mAb mixture).
T5 construct: also called CBD-B
B7: no binding (tested: CBD at ~500 nM, CBD:Mab 1:5 and 1:20). B8: no binding (tested: CBD at ~500 nM, CBD:Mab 1:5 and 1:20). B6: no binding (tested: CBD at ~500 nM, CBD:Mab 1:5 and 1:20). B9: no binding (tested: CBD at ~500 nM, CBD:Mab 1:5 and 1:20).

The binders below were run against T2, CBD-toxin B-Fc (assay: SPR Biacore, CBD-B-Fc captured, 500 nM mAb flowed).
For B1, the “binding (RU)” value was -8 RU. In the case of B7, the “binding (RU)” value is reported as -2 RU. For B8, the “binding (RU)” value was -4 RU. In the case of B9, the “binding (RU)” value is reported as -2 RU. With B4 the “binding (RU)” value was -4 RU.

These binders were tested against T6, Clostridium difficile toxin B, soluble full-length (TechLab) (Clostridium difficile, UniProt P18177 2-2366) (assay: cell-based or functional assay).
In the case of B7, the “IC50, Vero cell viability (neutralization), Trial 1, 0.1 pM Toxin B” value (shortened to “IC50 … Trial 1, 0.1 pM Toxin B”) is reported as 480 pM, the “IC50, Vero cell viability (neutralization), Trial 2, 0.1 pM Toxin B” value (“IC50 … Trial 2, 0.1 pM Toxin B” below) is reported as 270 pM and the “IC50, Vero cell viability (neutralization), Trial 3, 0.03 pM Toxin B” value (from here on “IC50, Vero cell viability … 0.03 pM Toxin B”) is reported as 90 pM. For B8, the “IC50 … Trial 1, 0.1 pM Toxin B” value was 280 pM, the “IC50 … Trial 2, 0.1 pM Toxin B” value was 200 pM and the “IC50, Vero cell viability … 0.03 pM Toxin B” value was 50 pM. In the case of B6, the “IC50 … Trial 1, 0.1 pM Toxin B” value is reported as 130 pM, the “IC50 … Trial 2, 0.1 pM Toxin B” value is reported as 90 pM and the “IC50, Vero cell viability … 0.03 pM Toxin B” value is reported as 25 pM. B9 was tested, and the “IC50 … Trial 1, 0.1 pM Toxin B” value was 580 pM, the “IC50 … Trial 2, 0.1 pM Toxin B” value was 400 pM and the “IC50, Vero cell viability … 0.03 pM Toxin B” value was 40 pM.

Each binder was assayed against T6, Clostridium difficile toxin B, soluble … (assay: SPR Biacore T200, 37C, mAb capture).
In the case of B2, the Kd is reported as 1.65 nM, the “T½” value is reported as 2.93 h and the koff is reported as 6.54e-05 s⁻¹. The kon was 39700 M⁻¹ s⁻¹. For B3, the Kd was no more than 0.00302 nM, the “T½” value was 192 h and the koff was no more than 1e-06 s⁻¹. For the same binder, the kon was 331000 M⁻¹ s⁻¹. With B5 the Kd was 1.24 nM, the “T½” value was 2.53 h and the koff was 7.58e-05 s⁻¹. For the same binder, the kon was 61100 M⁻¹ s⁻¹.

These binders were tested against T1, Clostridium difficile toxin A, soluble … (assay: SPR Biacore T200, 37C, mAb capture).
For B2, the Kd was 0.481 nM, the “T½” value was 0.317 h and the koff was 0.000593 s⁻¹. It also gave a kon of 1.23e+06 M⁻¹ s⁻¹. For B3, the Kd was 0.174 nM, the “T½” value was 0.967 h and the koff was 0.000198 s⁻¹. It also gave a kon of 1.14e+06 M⁻¹ s⁻¹. B5 was tested, and the Kd was 0.172 nM, the “T½” value was 1.15 h and the koff was 0.000166 s⁻¹. It also gave a kon of 969000 M⁻¹ s⁻¹.

Molecular target: T6, Clostridium difficile toxin B, soluble …
Assay: SPR Biacore T200, 37C, mAb capture
Remark: another data set of the same source
In the case of B7, the Kd is reported as 1.95 nM, the “T½” value is reported as 0.367 h and the koff is reported as 0.000537 s⁻¹. For the same binder, the kon was 276000 M⁻¹ s⁻¹. B8 was tested, and the Kd was 1.58 nM, the “T½” value was 0.433 h and the koff was 0.000448 s⁻¹. It also gave a kon of 284000 M⁻¹ s⁻¹. B6 was tested, and the Kd was 2.4 nM, the “T½” value was 0.233 h and the koff was 0.000813 s⁻¹. For the same binder, the kon was 339000 M⁻¹ s⁻¹. In the case of B9, the Kd is reported as 4.24 nM, the “T½” value is reported as 0.217 h and the koff is reported as 0.000865 s⁻¹. It also gave a kon of 204000 M⁻¹ s⁻¹.

Molecular target: T1, Clostridium difficile toxin A, soluble …
Assay: SPR Biacore T200, 37C, mAb capture
Remark: another data set of the same source
With B1 the Kd was 0.105 nM, the “T½” value was 3.48 h and the koff was 5.51e-05 s⁻¹. It also gave a kon of 527000 M⁻¹ s⁻¹. B4 was tested, and the Kd was 0.547 nM, the “T½” value was 1.42 h and the koff was 0.000137 s⁻¹. For the same binder, the kon was 250000 M⁻¹ s⁻¹.

Reference: patent US20160264650A1 (Regeneron, published 2016)
